Assay results reported in paper PMC10891134, “Bacteria employ lysine acetylation of transcriptional regulators to adapt gene expression to cellular metabolism” (Nature Communications, 2024).
Numbering of substitutions follows the chain as printed.

T1: RutR K7Q (UniProt P0ACU2 1-212, K7Q)
T1 sequence: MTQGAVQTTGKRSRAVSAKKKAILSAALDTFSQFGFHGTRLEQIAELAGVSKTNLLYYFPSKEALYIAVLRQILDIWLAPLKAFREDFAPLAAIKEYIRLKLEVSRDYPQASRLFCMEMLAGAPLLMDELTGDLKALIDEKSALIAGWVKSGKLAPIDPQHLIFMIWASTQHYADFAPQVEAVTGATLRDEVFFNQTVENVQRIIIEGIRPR

T2: RutR K52R (UniProt P0ACU2 1-212, K52R)
T2 sequence: T1 sequence with Q7K, K52R

T3: RutR K11Q (UniProt P0ACU2 1-212, K11Q)
T3 sequence: T1 sequence with Q7K, K11Q

T4: RutR K7Q/K11Q (UniProt P0ACU2 1-212, K7Q;K11Q)
T4 sequence: T1 sequence with K11Q

T5: RutR K52Q (UniProt P0ACU2 1-212, K52Q)
T5 sequence: T1 sequence with Q7K, K52Q

T6: RutR WT (UniProt P0ACU2 1-212)
T6 sequence: T1 sequence with Q7K

T7: RutR K7R/K11R (UniProt P0ACU2 1-212, K7R;K11R)
T7 sequence: T1 sequence with Q7R, K11R

T8: RutR Δ1-12 (UniProt P0ACU2 13-212, del1-12)
T8 sequence: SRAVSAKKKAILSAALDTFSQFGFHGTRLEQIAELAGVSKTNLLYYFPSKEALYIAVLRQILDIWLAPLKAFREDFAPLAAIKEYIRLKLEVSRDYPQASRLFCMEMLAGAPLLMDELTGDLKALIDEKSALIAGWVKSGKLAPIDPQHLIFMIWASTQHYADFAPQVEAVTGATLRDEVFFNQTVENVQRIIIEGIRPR

B1: boxcarA (dsDNA)
DNA 1: GTTTTAATGTAAATTTTGACCATTTGGTCCACTTTTTTCTGCTCGT
DNA 2: ACGAGCAGAAAAAAGTGGACCAAATGGTCAAAATTTACATTAAAAC
B2: boxrutA (dsDNA)
DNA 1: GTTTTATGTGCAACTGTTTTGACCGTTTAGTCCACTTTTTACCAGATATTTTAG
DNA 2: CTAAAATATCTGGTAAAAAGTGGACTAAACGGTCAAAACAGTTGCACATAAAAC
B3: biotin-boxrutA (dsDNA)
DNA 1: B2 DNA 1
DNA 2: B2 DNA 2

What was measured:
[1] = target: RutR AcK7 K7AcK (Escherichia coli K12?) (UniProt P0ACU2); assay: SPR; conditions: ITC: 100 mM potassium phosphate pH 6.4, 150 mM NaCl, 5 mM MgCl2, 2 mM b-ME, 20 or 25 C; SPR: 100 mM potassium phosphate pH 6.4, 300 mM NaCl, 0.05% Tween20 …
Sequence of RutR AcK7 K7AcK (Escherichia coli K12?) (P0ACU2 whole entry): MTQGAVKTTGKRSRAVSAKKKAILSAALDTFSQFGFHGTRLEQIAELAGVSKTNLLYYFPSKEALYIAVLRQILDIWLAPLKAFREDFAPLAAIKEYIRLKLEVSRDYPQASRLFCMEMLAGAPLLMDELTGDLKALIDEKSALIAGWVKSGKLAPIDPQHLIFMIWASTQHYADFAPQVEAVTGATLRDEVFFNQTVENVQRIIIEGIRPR

[2] = target: RutR AcK7/11 K7AcK;K11AcK (Escherichia coli K12?) (UniProt P0ACU2); assay: SPR; conditions: ITC: 100 mM potassium phosphate pH 6.4, 150 mM NaCl, 5 mM MgCl2, 2 mM b-ME, 20 or 25 C; SPR: 100 mM potassium phosphate pH 6.4, 300 mM NaCl, 0.05% Tween20 …
Sequence of RutR AcK7/11 K7AcK;K11AcK (Escherichia coli K12?) (P0ACU2 whole entry): as above

[3] = target: RutR AcK7 K7AcK (Escherichia coli K12?) (UniProt P0ACU2); assay: ITC; conditions: ITC: 100 mM potassium phosphate pH 6.4, 150 mM NaCl, 5 mM MgCl2, 2 mM b-ME, 20 or 25 C; SPR: 100 mM potassium phosphate pH 6.4, 300 mM NaCl, 0.05% Tween20 …
[4] = target: RutR AcK150 K150AcK (Escherichia coli K12?) (UniProt P0ACU2); assay: ITC; conditions: ITC: 100 mM potassium phosphate pH 6.4, 150 mM NaCl, 5 mM MgCl2, 2 mM b-ME, 20 or 25 C; SPR: 100 mM potassium phosphate pH 6.4, 300 mM NaCl, 0.05% Tween20 …
[5] = target: RutR AcK21 K21AcK (Escherichia coli K12?) (UniProt P0ACU2); assay: ITC; conditions: ITC: 100 mM potassium phosphate pH 6.4, 150 mM NaCl, 5 mM MgCl2, 2 mM b-ME, 20 or 25 C; SPR: 100 mM potassium phosphate pH 6.4, 300 mM NaCl, 0.05% Tween20 …
[6] = target: RutR AcK7/11 K7AcK;K11AcK (Escherichia coli K12?) (UniProt P0ACU2); assay: ITC; conditions: ITC: 100 mM potassium phosphate pH 6.4, 150 mM NaCl, 5 mM MgCl2, 2 mM b-ME, 20 or 25 C; SPR: 100 mM potassium phosphate pH 6.4, 300 mM NaCl, 0.05% Tween20 …
[7] = target: RutR AcK11 K11AcK (Escherichia coli K12?) (UniProt P0ACU2); assay: ITC; conditions: ITC: 100 mM potassium phosphate pH 6.4, 150 mM NaCl, 5 mM MgCl2, 2 mM b-ME, 20 or 25 C; SPR: 100 mM potassium phosphate pH 6.4, 300 mM NaCl, 0.05% Tween20 …
Sequence of RutR AcK11 K11AcK (Escherichia coli K12?) (P0ACU2 whole entry): as above

[8] = target: RutR AcK62 K62AcK (Escherichia coli K12?) (UniProt P0ACU2); assay: ITC; conditions: ITC: 100 mM potassium phosphate pH 6.4, 150 mM NaCl, 5 mM MgCl2, 2 mM b-ME, 20 or 25 C; SPR: 100 mM potassium phosphate pH 6.4, 300 mM NaCl, 0.05% Tween20 …
Sequence of RutR AcK62 K62AcK (Escherichia coli K12?) (P0ACU2 whole entry): as above

[9] = target: RutR AcK95 K95AcK (Escherichia coli K12?) (UniProt P0ACU2); assay: ITC; conditions: ITC: 100 mM potassium phosphate pH 6.4, 150 mM NaCl, 5 mM MgCl2, 2 mM b-ME, 20 or 25 C; SPR: 100 mM potassium phosphate pH 6.4, 300 mM NaCl, 0.05% Tween20 …
RutR K7Q = target: T1, RutR K7Q; assay: ITC; ITC: 100 mM potassium phosphate pH 6.4, 150 mM NaCl, 5 mM MgCl2, 2 mM b-ME, 20 or 25 C; SPR: 100 mM potassium phosphate pH 6.4, 300 mM NaCl, 0.05% Tween20, 25 C; EMSA: 20 mM Tris-HCl pH 7.5, 100 mM KCl, 2 mM DTT, 10% glycerol, 25 nM DNA, 30 C; conditions: protein: recombinant; tags: His6; chain copies: 2; blunt
RutR K52R = target: T2, RutR K52R; assay: as above; conditions: protein: recombinant; tags: His6; chain copies: 2; blunt
RutR K11Q = target: T3, RutR K11Q; assay: as above; conditions: protein: recombinant; tags: His6; chain copies: 2; blunt
RutR K7Q/K11Q = target: T4, RutR K7Q/K11Q; assay: as above; conditions: protein: recombinant; tags: His6; chain copies: 2; blunt
RutR K52Q = target: T5, RutR K52Q; assay: as above; conditions: protein: recombinant; tags: His6; chain copies: 2; blunt
RutR WT [10] = target: T6, RutR WT; assay: as above; conditions: protein: recombinant; tags: His6; chain copies: 2; blunt
RutR K7R/K11R = target: T7, RutR K7R/K11R; assay: as above; conditions: protein: recombinant; tags: His6; chain copies: 2; blunt
RutR Δ1-12 = target: T8, RutR Δ1-12; assay: EMSA; ITC: 100 mM potassium phosphate pH 6.4, 150 mM NaCl, 5 mM MgCl2, 2 mM b-ME, 20 or 25 C; SPR: 100 mM potassium phosphate pH 6.4, 300 mM NaCl, 0.05% Tween20, 25 C; EMSA: 20 mM Tris-HCl pH 7.5, 100 mM KCl, 2 mM DTT, 10% glycerol, 25 nM DNA, 30 C; conditions: protein: recombinant; tags: His6; chain copies: 2; blunt
RutR WT [11] = target: T6, RutR WT; assay: SPR; ITC: 100 mM potassium phosphate pH 6.4, 150 mM NaCl, 5 mM MgCl2, 2 mM b-ME, 20 or 25 C; SPR: 100 mM potassium phosphate pH 6.4, 300 mM NaCl, 0.05% Tween20, 25 C; EMSA: 20 mM Tris-HCl pH 7.5, 100 mM KCl, 2 mM DTT, 10% glycerol, 25 nM DNA, 30 C; conditions: protein: recombinant; tags: His6; chain copies: 2; blunt

Row | Molecule | Kd (RutR K7Q) | Kd (RutR K52R) | Kd (RutR K11Q) | Kd (RutR K7Q/K11Q) | Kd (RutR K52Q) | Kd (RutR WT [10]) | Kd (RutR K7R/K11R) | binding result (RutR Δ1-12) | further results
1 | GTTTTATGTGCAACTGTTTTGACCGTTTAGTCCACTTTTTACCAGATATTTTAG (double strand) [biotin-boxrutA] | – | – | – | – | – | – | – | – | Kd [1]: 9.06 nM; Kd [2]: 76.2 nM
2 | GTTTTAATGTAAATTTTGACCATTTGGTCCACTTTTTTCTGCTCGT (double strand) [boxcarA] | – | – | – | – | – | – | – | – | Kd [3]: 73 nM; Kd [4]: 40 nM; Kd [5]: 12 nM; Kd [6]: 300 nM; Kd [7]: 82 nM; Kd [8]: 1120 nM; Kd [9]: 19 nM
3 | B1 | 26 ± 12 nM | 61 ± 36 nM | 42 ± 16 nM | 153 ± 43 nM | 1220 ± 1130 nM | 28 ± 1 nM | 17 ± 1 nM | binds | –
4 | B2 | 57 ± 20 nM | 42 ± 30 nM | 332 ± 179 nM | 540 ± 158 nM | 2420 ± 961 nM | 44 ± 21 nM | 47 ± 20 nM | binds | –
5 | B3 | – | – | – | – | – | – | – | – | Kd (RutR WT [11]): 4.27 ± 1.19 nM
